Experiment [1] addresses T1, hCD3ε/g.
T1 construct: also called human CD3εγ on Ba/F3 cells
The experiment is described as follows: cell-ELISA on Ba/F3 cells expressing human CD3εγ, hybridoma culture supernatant (CM). In general terms: In an ELISA, binding on a coated surface is turned into a signal by an enzyme label.

For experiment [2], the target named is T2, Cy CD3ε/g.
T2 construct: also called cynomolgus monkey CD3εγ on Ba/F3 cells
T2 epsilon: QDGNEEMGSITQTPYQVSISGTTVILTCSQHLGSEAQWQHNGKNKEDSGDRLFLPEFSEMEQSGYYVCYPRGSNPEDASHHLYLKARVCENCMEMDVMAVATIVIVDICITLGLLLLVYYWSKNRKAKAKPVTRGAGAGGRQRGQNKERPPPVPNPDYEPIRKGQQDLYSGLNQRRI
T2 gamma: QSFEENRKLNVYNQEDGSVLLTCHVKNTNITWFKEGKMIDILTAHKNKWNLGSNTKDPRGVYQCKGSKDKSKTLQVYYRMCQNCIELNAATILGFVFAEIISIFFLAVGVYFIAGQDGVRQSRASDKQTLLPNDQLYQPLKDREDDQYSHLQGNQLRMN
The experiment in a line: cell-ELISA on Ba/F3 cells expressing cynomolgus monkey CD3εγ, hybridoma culture supernatant (CM).

The target in experiment [3] is T3, CD3ε homodimer protein (human, UniProt P07766 23-126, limits assumed).
T3 construct: also called human CD3ε homodimer protein; CD3e homodimer
The experiment is described as follows: SPR (Biacore T200, 25°C); CD3ε homodimer immobilized on CM4, one-arm antibody as analyte.

The target of experiment [4] is T3, CD3ε homodimer protein. The experiment in a line: SPR (Biacore T200, 25°C); CD3ε homodimer immobilized on CM4, one-arm antibody as analyte; first of two CE115HA340 lines (r6, 2.0E-08); the second line (r8) gives 2.7E-08. On the technique in general: Surface plasmon resonance follows binding to a sensor surface in real time, without labels.
For experiment [5], the target named is T4, integrin αvβ3 (R&D Systems, Inc.) (human, UniProt P06756 31-992; P05106 27-718). The experiment in a line: ECL; integrin αvβ3 on plate with CD3ε homodimer protein (competitor), ratio to the integrin-free well.
Experiment [6] has as its target T4, integrin αvβ3 (R&D Systems, Inc.). The experiment in a line: ECL; integrin αvβ3 value without against with CD3ε homodimer protein (competitor).
Experiment [7] has as its target T5, human IgA-Fc with AviTag, biotinylated (human, UniProt P01876 123-333, limits assumed, biotinylated at the C-terminal AviTag sequence).
T5 construct: also called hIgA; biotinylated human IgA
The experiment is described as follows: ECL; hIgA value without against with integrin αvβ3 (competitor).

In experiment [8] the target is T4, integrin αvβ3 (R&D Systems, Inc.). The experiment is described as follows: ECL; integrin αvβ3 on plate, ratio to the integrin-free well.
In experiment [9] the target is T6, biotin-labeled CD3ε peptide (also: biotin-labeled, site not given here).
T6 construct: also called CD3 peptide; biotinylated CD3ε peptide
T6 peptide: QDGNEEMGGITQTPY
The experiment is described as follows: ECL; CD3 peptide as antigen, ratio to the no-antigen well.

Experiment [10] has as its target T5, human IgA-Fc with AviTag, biotinylated. The experiment in a line: ECL; biotinylated hIgA with integrin αvβ3 (competitor), ratio to the no-antigen well.
The target is the same in experiment [11]. The experiment is described as follows: ECL; biotinylated hIgA, ratio to the no-antigen well.
For experiment [12] the target is unchanged. The experiment is described as follows: ECL; hIgA signal without against with CD3ε homodimer protein (competitor).
Experiment [13] shares this target. The experiment is described as follows: ECL; biotinylated hIgA, ratio to the no-antigen well. The source holds these as a separate data set.
Experiment [14] has the same target. The experiment in a line: ECL; biotinylated hIgA with CD3ε homodimer protein (competitor), ratio to the no-antigen well.

Ends that are not written are not given here.

B1: CE#115 (antibody, V domains shown)
VH: EVQLVETGGSLVQPGKSLKLTCATSGFTFSNAWMHWVRQSPEKQLEWVAQIKAKSNNYATYYAESVKGRFTISRDDSKSNIYLQMNSLKEEDTAVYYCRYVHYGAYYGVDAWGQGTSVTVSS
VL: DVVMTQTPVSMSVSLGGQVSISCRSSQSLVHNNGNTYVSWYIQKPSQSPQLLIYKVSNRFSGISDRFSGSGSGTDFTLKISRVEPDDLGVYYCGQGTQDPYTFGAGTKLELK
notes: also called CE115, rat hybridoma culture supernatant
With B1, the binding result in [1] and in [2] was “binds” throughout.

B2: CE115HA340 / GLS3000 one-arm antibody (antibody, human IgG1, kappa, L234A L235A, N297A)
heavy: QVQLVESGGGLVQPGRSLRLSCAASGFTFSNAWMHWVRQAPGKGLEWVAQIKDKSNNYATYYAESVKGRFTISRDDSKNSIYLQMNSLKTEDTAVYYCRYVHYAAYYGVDAWGQGTTVTVSSASTKGPSVFPLAPSSKSTSGGTAALGCLVKDYFPEPVTVSWNSGALTSGVHTFPAVLQSSGLYSLSSVVTVPSSSLGTQTYICNVNHKPSNTKVDKKVEPKSCDKTHTCPPCPAPEAAGGPSVFLFPPKPKDTLMISRTPEVTCVVVDVSHEDPEVKFNWYVDGVEVHNAKTKPREEQYASTYRVVSVLTVLHQDWLNGKEYKCKVSNKALPAPIEKTISKAKGQPREPQVYTLPPSRCELTKNQVSLSCAVKGFYPSDIAVEWESNGQPENNYKTTPPVLDSDGSFFLVSKLTVDKSRWQQGNVFSCSVMHEALHNHYTQKSLSLSPDYKDDDDK
chain: EPKSSDKTHTCPPCPAPELLGGPSVFLFPPKPKDTLMISRTPEVTCVVVDVSHEDPEVKFNWYVDGVEVHNAKTKPREEQYNSTYRVVSVLTVLHQDWLNGKEYKCKVSNKALPAPIEKTISKAKGQPREPQVCTLPPSRDELTKNQVSLWCLVKGFYPSDIAVEWESNGQPENNYKTTPPVLDSDGSFFLYSKLTVDKSRWQQGNVFSCSVMHEALHNRYTQKSLSLSP
light: DIVMTQSPLSLPVTPGEPASISCRSSQSLVHSNRNTYLHWYQQKPGQAPRLLIYKVSNRFSGVPDRFSGSGSGTDFTLKISRVEAEDVGVYYCGQGTQVPYTFGQGTKLEIKRTVAAPSVFIFPPSDEQLKSGTASVVCLLNNFYPREAKVQWKVDNALQSGNSQESVTEQDSKDSTYSLSSTLTLSKADYEKHKVYACEVTHQGLSSPVTKSFNRGEC
notes: one-arm antibody
B2: the results for the Kd in experiment [3] and in [4] were 27 nM and 20 nM, respectively.

B3: IGAR6(2)B02 (antibody, human IgG1, kappa, L234A L235A, N297A)
heavy: QVQLVESGGGLVQPGRSLRLSCAASGFTFSNAWMHWVRQAPGKGLEWVAQIKDKGQQYAAYYAPSVKGRFTISRDDSKNSIYLQMNSLKTEDTAVYYCRYVHYQTYSDGSFYFGVDAWGQGTTVTVSSASTKGPSVFPLAPSSKSTSGGTAALGCLVKDYFPEPVTVSWNSGALTSGVHTFPAVLQSSGLYSLSSVVTVPSSSLGTQTYICNVNHKPSNTKVDKKVEPKSCDKTHTCPPCPAPEAAGGPSVFLFPPKPKDTLMISRTPEVTCVVVDVSHEDPEVKFNWYVDGVEVHNAKTKPREEQYASTYRVVSVLTVLHQDWLNGKEYKCKVSNKALPAPIEKTISKAKGQPREPQVYTLPPSRCELTKNQVSLSCAVKGFYPSDIAVEWESNGQPENNYKTTPPVLDSDGSFFLVSKLTVDKSRWQQGNVFSCSVMHEALHNHYTQKSLSLSPDYKDDDDK
chain: EPKSSDKTHTCPPCPAPELLGGPSVFLFPPKPKDTLMISRTPEVTCVVVDVSHEDPEVKFNWYVDGVEVHNAKTKPREEQYNSTYRVVSVLTVLHQDWLNGKEYKCKVSNKALPAPIEKTISKAKGQPREPQVCTLPPSRDELTKNQVSLWCLVKGFYPSDIAVEWESNGQPENNYKTTPPVLDSDGSFFLYSKLTVDKSRWQQGNVFSCSVMHEALHNRYTQKSLSLSP
light: DIVMTQSPLSLPVTPGEPASISCRSSQSLVHSNRNTYLHWYQQKPGQAPRLLIYKVSNRFSGVPDRFSGSGSGTDFTLKISRVEAEDVGVYYCGQGTQVPYTFGQGTKLEIKRTVAAPSVFIFPPSDEQLKSGTASVVCLLNNFYPREAKVQWKVDNALQSGNSQESVTEQDSKDSTYSLSSTLTLSKADYEKHKVYACEVTHQGLSSPVTKSFNRGEC
notes: One-arm antibody; also called IGA6 (2) B02; IGAR6(2)B02#1
For the molecule B3, the “Value as compared with integrin αvβ3-free well” value in [5] and in experiment [8] was 0.8 fold throughout. Further, the “Amount of binding to integrin αvβ3 attenuated by CD3” value in experiment [6] was determined as 1 fold. Moreover, the “Amount of binding to hIgA attenuated by integrin αvβ3” value in experiment [7] amounted to 1 fold. Further, the “Value as compared with antigen-free well” value stood at 910 fold in experiment [9]; 15.9 fold in experiment [10]; 20 fold in experiment [11]; 15.6 fold in experiment [13]; 1 fold in experiment [14]. Also, the “Amount of binding to hIgA attenuated by CD3” value in experiment [12] was found to be 23.4 fold.

B4: IGAR6(2)B02H1 (antibody, human IgG1, kappa, L234A L235A, N297A)
heavy: QVQLVESGGGLVQPGRSLRLSCAASGFTFSNAWMHWVRQAPGKGLEWVAQIKDKGQQYAAYYAPSVKGRFTISRDGCRGDCLDSKNSIYLQMNSLKTEDTAVYYCRYVHYQTYSDGSFYFGVDAWGQGTTVTVSSASTKGPSVFPLAPSSKSTSGGTAALGCLVKDYFPEPVTVSWNSGALTSGVHTFPAVLQSSGLYSLSSVVTVPSSSLGTQTYICNVNHKPSNTKVDKKVEPKSCDKTHTCPPCPAPEAAGGPSVFLFPPKPKDTLMISRTPEVTCVVVDVSHEDPEVKFNWYVDGVEVHNAKTKPREEQYASTYRVVSVLTVLHQDWLNGKEYKCKVSNKALPAPIEKTISKAKGQPREPQVYTLPPSRCELTKNQVSLSCAVKGFYPSDIAVEWESNGQPENNYKTTPPVLDSDGSFFLVSKLTVDKSRWQQGNVFSCSVMHEALHNHYTQKSLSLSPDYKDDDDK
chain: EPKSSDKTHTCPPCPAPELLGGPSVFLFPPKPKDTLMISRTPEVTCVVVDVSHEDPEVKFNWYVDGVEVHNAKTKPREEQYNSTYRVVSVLTVLHQDWLNGKEYKCKVSNKALPAPIEKTISKAKGQPREPQVCTLPPSRDELTKNQVSLWCLVKGFYPSDIAVEWESNGQPENNYKTTPPVLDSDGSFFLYSKLTVDKSRWQQGNVFSCSVMHEALHNRYTQKSLSLSP
light: DIVMTQSPLSLPVTPGEPASISCRSSQSLVHSNRNTYLHWYQQKPGQAPRLLIYKVSNRFSGVPDRFSGSGSGTDFTLKISRVEAEDVGVYYCGQGTQVPYTFGQGTKLEIKRTVAAPSVFIFPPSDEQLKSGTASVVCLLNNFYPREAKVQWKVDNALQSGNSQESVTEQDSKDSTYSLSSTLTLSKADYEKHKVYACEVTHQGLSSPVTKSFNRGEC
notes: One-arm antibody
In the case of B4, the “Value as compared with integrin αvβ3-free well” value was determined as 185 fold in experiment [5] and 438 fold in [8]. For the same molecule, the “Amount of binding to integrin αvβ3 attenuated by CD3” value in [6] is 2.4 fold. Moreover, the “Amount of binding to hIgA attenuated by integrin αvβ3” value in experiment [7] worked out at 2.5 fold. The “Value as compared with antigen-free well” value in experiment [9] stood at 1410 fold; in [10] it was 1.6 fold; in experiment [11], 8 fold; in [13], 3.9 fold; in [14] it was 1 fold. The “Amount of binding to hIgA attenuated by CD3” value in experiment [12] was 7.4 fold.

The values are drawn from patent publication US20220040297A1 (Chugai, published 2022).
